Experimental data from CN117964771A (ZHIZE TONGKANG GUANGZHOU BIOTECHNOLOGY CO LTD, dated 2024).

Molecular target: T1, 人基质金属蛋白酶7(hMMP7)重组蛋白 (human, UniProt P09237 18-267, limits assumed)
T1 construct: Recombinant protein made according to UniProt P09237; also called MMP7抗原; MMP7蛋白
T1 sequence (looked up): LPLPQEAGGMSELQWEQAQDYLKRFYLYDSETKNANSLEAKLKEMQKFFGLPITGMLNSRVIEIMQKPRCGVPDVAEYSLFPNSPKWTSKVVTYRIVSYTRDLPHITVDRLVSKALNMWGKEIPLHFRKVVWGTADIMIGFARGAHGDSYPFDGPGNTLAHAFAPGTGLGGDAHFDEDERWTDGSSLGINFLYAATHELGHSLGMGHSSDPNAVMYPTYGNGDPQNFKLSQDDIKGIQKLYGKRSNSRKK
Assay: SPR, labelled MMP7 immobilised on chip, antibody as analyte (100 nM, 2-fold dilutions), 1:1 Langmuir model

Kd: < 1 nM
B1: MMP7单克隆抗体M4 (antibody, mouse IgG1, kappa, V domains shown)
VH: QVQLQQSGAELMKPGASVKLSCKASGYTFTSYYMYWVKQRPGQGLEWIGEINPSNADTEFNEKFKSKATLTVDKSSSTAYMQLSSLTSEDSAVYYCTRWPLYGAMDYWGQGTSVTVSS
VL: DVQITQSPSYLAASPGETITINCRASKSISKYLAWYQEKPGKTNKLLIYSGHWLQSGIPSRFSGSGSGSDFTLTISSLEPEDFAMYYCQQHFEYPWTFGAGTKLELKR
